Assay results taken from PMC6244167.

How the values were obtained:
[1] = target: vasoinhibin of 79 residues (first 79 residues of human PRL) (human); assay: non-reducing Western blot; conditioned media of transduced HEK293T/17 cells run without reduction and immunoblotted for PRL; disulfide-bonded dimers seen as bands of ~18 kDa and ~28 kDa
[2] = target: vasoinhibin of 123 residues (first 123 residues of human PRL) (human); assay: as above

Row | stoichiometry N [1] | stoichiometry N [2] | Substance
1 | 2 | – | vasoinhibin of 79 residues (first 79 residues of human PRL) (domain or fragment)
2 | – | 2 | vasoinhibin of 123 residues (first 123 residues of human PRL) (domain or fragment)
